Values of other authors as cited in paper PMC9866218, “Characterization and Chemical Synthesis of Cm39 (α-KTx 4.8): A Scorpion Toxin That Inhibits Voltage-Gated K^+ Channel KV1.2 and Small- and Intermediate-Conductance Ca^2+-Activated K^+ Channels KCa2.2 and KCa3.1” (Toxins, 2023).
Read-outs that look alike come from different tables or passages of the source.

How the values were obtained:
KCa3.1 (Homo sapiens) [1] = molecular target: KCa3.1 (Homo sapiens) (UniProt O15554)
KCa3.1 (Homo sapiens) [2] = molecular target: KCa3.1 (Homo sapiens) (UniProt O15554); remark: listed apart in the source

Sequence of KCa3.1 (Homo sapiens) (O15554 whole entry): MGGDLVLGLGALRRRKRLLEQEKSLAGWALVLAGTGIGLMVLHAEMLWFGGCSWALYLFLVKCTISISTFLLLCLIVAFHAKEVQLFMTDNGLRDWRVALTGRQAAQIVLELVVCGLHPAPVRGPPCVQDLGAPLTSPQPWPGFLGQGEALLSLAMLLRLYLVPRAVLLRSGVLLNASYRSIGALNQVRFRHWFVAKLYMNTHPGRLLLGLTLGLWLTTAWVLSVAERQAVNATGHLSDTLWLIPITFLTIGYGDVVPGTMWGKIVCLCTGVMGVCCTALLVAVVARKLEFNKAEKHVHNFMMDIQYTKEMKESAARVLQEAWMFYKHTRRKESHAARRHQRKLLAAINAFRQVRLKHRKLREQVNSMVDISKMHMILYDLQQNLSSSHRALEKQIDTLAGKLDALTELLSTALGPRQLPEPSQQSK
Sequence of charybdotoxin (ChTx, α-KTx-1.1) (P13487 23-59): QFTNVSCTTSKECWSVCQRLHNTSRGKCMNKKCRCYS
Sequence of maurotoxin (MTX, α-KTx-6.2) (P80719 whole entry): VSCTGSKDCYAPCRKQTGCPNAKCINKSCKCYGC

Substance: maurotoxin (MTX, α-KTx-6.2) (from UniProt P80719)
- Kd (KCa3.1 (Homo sapiens) [1]): 1 nM

Substance: charybdotoxin (ChTx, α-KTx-1.1) (from UniProt P13487)
- Kd (KCa3.1 (Homo sapiens) [2]): 5 nM
